Measurements reported in PMC5148741 (Journal of the American Chemical Society, 2016).
Where a chain is given by its changes, count along the chain named. Each block holds one binder with its values, some of them ahead of it. Ends that are not written are not given here. * marks the point of attachment. FITC = O=C1OC2(c3ccc(O)cc3Oc3cc(O)ccc32)c2ccc(NC(=S)*)cc21

Tests used:
Experiment in all cases: fluorescence polarisation
[1] = molecular target: MBP-TbtD
[2] = molecular target: TbtF
[3] = molecular target: MBP-TbtD; remark: listed apart in the source
[4] = molecular target: maltose-binding protein (MBP) tagged TbtB

B1: TbtA L(−32)A (peptide)
chain: MDANDLPMDVFELADSGVAVESLTAGHGMTEVGASCNCFCYICCSCSSA
IC50 [1]: 1.71 ± 0.47 µM
IC50 [2]: 1.58 ± 0.36 µM

B5: TbtA L(−29)A (peptide)
chain: B1 chain with A3L, L6A
IC50 [1]: > 10 µM
IC50 [2]: > 10 µM

B6: TbtA V(−25)A (peptide)
chain: B1 chain with A3L, V10A
IC50 [1]: 2.25 ± 0.2 µM
IC50 [2]: 0.62 ± 0.04 µM

B11: TbtA D(−33)A (peptide)
chain: B1 chain with D2A, A3L
IC50 [1]: 0.72 ± 0.07 µM
IC50 [2]: 0.99 ± 0.22 µM

B13: TbtA S(−19)A (peptide)
chain: B1 chain with A3L, S16A
IC50 [1]: 0.91 ± 0.11 µM
IC50 [2]: 1.57 ± 0.46 µM

B16: TbtA F(−24)A (peptide)
chain: B1 chain with A3L, F11A
IC50 [1]: 1.51 ± 0.09 µM
IC50 [2]: > 10 µM

B17: TbtA V(−17)A (peptide)
chain: B1 chain with A3L, V18A
IC50 [1]: 0.69 ± 0.04 µM
IC50 [2]: 0.49 ± 0.05 µM

B18: TbtA T(−11)A (peptide)
chain: B1 chain with A3L, T24A
IC50 [1]: 0.45 ± 0.02 µM
IC50 [2]: 0.51 ± 0.06 µM

B20: TbtA M(−6)A (peptide)
chain: B1 chain with A3L, M29A
IC50 [1]: 0.49 ± 0.07 µM
IC50 [2]: 0.45 ± 0.03 µM

B21: TbtA D(−30)A (peptide)
chain: B1 chain with A3L, D5A
IC50 [1]: 7.28 ± 0.77 µM
IC50 [2]: 0.94 ± 0.2 µM

B23: synthetic TbtA leader peptide derivatized with fluorescein isothiocyanate (FITC) at the N-terminus (peptide)
chain: {FITC}-MDLNDLPMDVFELADSGVAVESLTAGHGMTEVGA
Kd [3]: ~0.14 µM
Kd [4]: ~20 µM

Continued by falling IC50 [1], values first:

IC50 [1]: 6 ± 0.41 µM
IC50 [2]: 8.23 ± 1.45 µM
B4: TbtA D(−26)A (peptide)
chain: B1 chain with A3L, D9A

IC50 [1]: 4.47 ± 0.96 µM
IC50 [2]: 1.37 ± 0.15 µM
B10: TbtA E(−14)A (peptide)
chain: B1 chain with A3L, E21A

IC50 [1]: 4.13 ± 1.62 µM
IC50 [2]: 1.45 ± 0.46 µM
B22: TbtA D(−20)A (peptide)
chain: B1 chain with A3L, D15A

IC50 [1]: 3.68 ± 0.31 µM
IC50 [2]: 0.98 ± 0.06 µM
B15: TbtA H(−8)A (peptide)
chain: B1 chain with A3L, H27A

IC50 [1]: 3.46 ± 0.57 µM
IC50 [2]: 1.27 ± 0.15 µM
B3: TbtA E(−23)A (peptide)
chain: B1 chain with A3L, E12A

IC50 [1]: 3.29 ± 0.68 µM
IC50 [2]: 0.7 ± 0.04 µM
B12: TbtA L(−12)A (peptide)
chain: B1 chain with A3L, L23A

IC50 [1]: 2.76 ± 0.18 µM
IC50 [2]: 1.41 ± 0.07 µM
B2: TbtA S(−13)A (peptide)
chain: B1 chain with A3L, S22A

IC50 [1]: 1.35 ± 0.14 µM
IC50 [2]: 0.58 ± 0.05 µM
B7: TbtA V(−3)A (peptide)
chain: B1 chain with A3L, V32A

IC50 [1]: 1.13 ± 0.08 µM
IC50 [2]: 0.57 ± 0.07 µM
B19: TbtA N(−31)A (peptide)
chain: B1 chain with A3L, N4A

IC50 [1]: 1.06 ± 0.06 µM
IC50 [2]: 0.63 ± 0.06 µM
B14: TbtA V(−15)A (peptide)
chain: B1 chain with A3L, V20A

IC50 [1]: 0.7 ± 0.02 µM
IC50 [2]: 0.53 ± 0.03 µM
B8: TbtA E(−4)A (peptide)
chain: B1 chain with A3L, E31A

IC50 [1]: 0.61 ± 0.03 µM
IC50 [2]: 0.67 ± 0.03 µM
B9: TbtA wild-type (peptide)
chain: B1 chain with A3L
